# Results reported in US20230287363, “DNA POLYMERASE, APTAMER, WARM-START DNA POLYMERASE AND PREPARATION METHODS AND APPLICATION THEREOF” (Sun Yat-Sen University, published 2023).
# T1: RHAU23-Bst (DHX36 RHAU23 peptide fused to N-terminus of Bst-LF) (Homo sapiens / Geobacillus …)
# T1 chain: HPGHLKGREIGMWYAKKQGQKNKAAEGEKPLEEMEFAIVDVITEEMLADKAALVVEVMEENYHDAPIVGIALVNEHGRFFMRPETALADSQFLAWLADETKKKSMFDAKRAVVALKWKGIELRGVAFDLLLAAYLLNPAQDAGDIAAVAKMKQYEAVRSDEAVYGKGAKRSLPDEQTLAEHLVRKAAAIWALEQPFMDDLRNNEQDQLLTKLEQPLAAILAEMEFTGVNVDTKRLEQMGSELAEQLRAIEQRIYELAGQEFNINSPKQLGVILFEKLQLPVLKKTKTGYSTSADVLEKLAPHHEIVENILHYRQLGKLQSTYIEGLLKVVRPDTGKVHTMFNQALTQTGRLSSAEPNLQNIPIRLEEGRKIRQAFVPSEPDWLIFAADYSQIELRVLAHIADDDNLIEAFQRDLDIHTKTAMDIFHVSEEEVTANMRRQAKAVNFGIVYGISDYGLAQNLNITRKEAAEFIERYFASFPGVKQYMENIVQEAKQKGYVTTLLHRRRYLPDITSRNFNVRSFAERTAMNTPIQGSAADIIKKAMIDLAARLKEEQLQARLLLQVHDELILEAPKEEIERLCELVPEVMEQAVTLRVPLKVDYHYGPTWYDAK
# B1: PDGFRB-Fd-G4 (structured_DNA)
# DNA 1: CCTGAAGCAGACAGCTAGTGAATTCGGGAGGGCGGCGGGGCAGGGTACTTGCGTATAACTGTTCCATAGT
# DNA 2: ACTATGGAACAGTTATACGCAAGTATTTTTTTTTTTTTTTTTTTTTGAATTCACTAGCTGTCTGCTTCAGG
# B2: T4B1-Fd-G4 (structured_DNA)
# DNA 1: CCTGAAGCAGACAGCTAGTGAATTCGTTTTGGTGGGTGGGTGGGTACTTGCGTATAACTGTTCCATAGT
# DNA 2: ACTATGGAACAGTTATACGCAAGTATTTTTTTTTTTTTTTTTTTTTGAATTCACTAGCTGTCTGCTTCAGG
# Target: T1, RHAU23-Bst (DHX36 RHAU23 peptide fused …)
# Assay: EMSA; Kd stated only as nM level; K+ buffer, 4 C
# Conditions: tags: His-tag, pCold-I, E. coli BL21; label: 5'-FAM (EMSA); bulged G4 with flanking dsDNA
# Protocol: Oligonucleotides were purchased from Sangon Biotech Co., Ltd (China). Double-stranded DNAs (dsDNA) were paired from the complementary single-stranded DNA (ssDNA) by denaturing at 95° C. for 5 min and subsequently cooling to 25° C. in a buffer containing 10 mM Tris-HCl (pH 7.4), 75 mM KCl and 0.5 mM EDTA. 20 nM 5′-FAM-labeled aptamer DNA (Table 1) was dissolved in a first buffer, denatured at 95° C. for 5 min and subsequently cooled to 25° C. at a rate of 0.1° C./s; the first buffer contained 10 mM Tris-HCl (pH 7.4), 75 mM KCl, 0.5 mM EDTA, and 0.2 mg/ml BSA. Then each aptamer DNA and the specified concentration of DNA polymerase fused to G-quadruplex binding peptide were added into a second buffer, to bind at 4° C. for 1 hour, to form a DNA-protein complex; the second buffer contained 20 mM Tris-HCl (pH 8.8), 10 mM (NH₄)₂SO₄, 50 mM KCl, 2-8 mM MgSO₄, and 0.1% Tween-20.
# The binding of aptamer to DNA polymerase was detected by electrophoretic mobility shift assay. Specifically, DNA-protein complex was electrophoresed on 8% or 12% non-denatured polyacrylamide gel containing 75 mM KCl at 4° C. for 2 h in 1×TBE buffer containing 75 mM KCl. The DNA-protein complex was photographed by the ChemiDoc MP imaging system (Bio-Rad) and digitized by the Image Quant 5.2 software.
binder,measurement,value
B1,binding result,binds
B2,binding result,binds
